Source: patent publication US20230340419A1, “METHODS FOR GENERATION OF MOUSE AND HUMAN URETERIC BUD ORGANOIDS AND COLLECTING DUCT ORGANOIDS” (University of Southern California, priority 2020, published 2023)

B1: FGF4: member of the FGF family (protein, UniProt P08620 31-206, looked up)
Fibroblast growth factor 4: APTAPNGTLEAELERRWESLVALSLARLPVAAQPKEAAVQSGAGDYLLGIKRLRRLYCNVGIGFHLQALPDGRIGGAHADTRDSLLELSPVERGVVSIFGVASRFFVAMSSKGKLYGSPFFTDECTFKEILLPNNYNAYESYKYPGMFIALSKNGKTKKGNRVSPTMKVTHFLPRL
B2: R-Spondin 1: UBCM component (protein, UniProt Q2MKA7 21-263, looked up)
R-spondin-1: SRGIKGKRQRRISAEGSQACAKGCELCSEVNGCLKCSPKLFILLERNDIRQVGVCLPSCPPGYFDARNPDMNKCIKCKIEHCEACFSHNFCTKCKEGLYLHKGRCYPACPEGSSAANGTMECSSPAQCEMSEWSPWGPCSKKQQLCGFRRGSEERTRRVLHAPVGDHAACSDTKETRRCTVRRVPCPEGQKRRKGGQGRRENANRNLARKESKEAGAGSRRRKGQQQQQQQGTVGPLTSAGPA
B3: GDNF: glial cell-derived neurotrophic factor (protein, UniProt P39905 78-211, looked up)
Glial cell line-derived …: SPDKQMAVLPRRERNRQAAAANPENSRGKGRRGQRGKNRGCVLTAIHLNVTDLGLGYETKEELIFRYCSGSCDAAETTYDKILKNLSRNRRLVSDKVGQACCRPIAFDDDLSFLDDNLVYHILRKHSAKRCGCI
B4: FGF8: member of the FGF family (protein, UniProt P55075 23-233, looked up)
Fibroblast growth factor 8: QEGPGRGPALGRELASLFRAGREPQGVSQQHVREQSLVTDQLSRRLIRTYQLYSRTSGKHVQVLANKRINAMAEDGDPFAKLIVETDTFGSRVRVRGAETGLYICMNKKGKLIAKSNGKGKDCVFTEIVLENNYTALQNAKYEGWYMAFTRKGRPRKGSKTRQHQREVHFMKRLPRGHHTTEQSLRFEFLNYPPFTRSLRGSQRTWAPEPR
B5: FGF10: member of the FGF family (protein, UniProt O15520 38-208, looked up)
Fibroblast growth factor 10: QALGQDMVSPEATNSSSSSFSSPSSAGRHVRSYNHLQGDVRWRKLFSFTKYFLKIEKNGKVSGTKKENCPYSILEITSVEIGVVAVKAINSNYYLAMNKKGKLYGSKEFNNDCKLKERIEENGYNTYASFNWQHNGRQMYVALNGKGAPRRGQKTRRKNTSAHFLPMVVHS
B6: BMP7: growth factor tested in screening (protein, UniProt P18075 293-431, looked up)
Bone morphogenetic protein 7: STGSKQRSQNRSKTPKNQEALRMANVAENSSSDQRQACKKHELYVSFRDLGWQDWIIAPEGYAAYYCEGECAFPLNSYMNATNHAIVQTLVHFINPETVPKPCCAPTQLNAISVLYFDDSSNVILKKYRNMVVRACGCH

Assays:
Type in all cases: cell-based, mouse
Wnt11-RFP UB organoid [1] = assay: Stage III 1st round screening of growth factors and small molecules for UB organoid culture condition; settings: reagent added to FGF9 + C3 + TTNPB + GDNF; compared to that control group
From the text: We employed this Wnt11-RFP reporter system as a readout to screen for a culture condition that maintained the progenitor identity of UPCs in vitro. T-shaped UBs were manually isolated from E11.5 kidneys of Wnt11-RFP mice, and immediately embedded into Matrigel to set up a 3D culture platform that supported epithelial branching. In this 3D culture format, built on previous efforts towards the ex vivo culture of UB, hundreds of different combinations of growth factors and small molecules were tested (see also the Materials and Techniques section below for details under subheading “Screening for optimal UB culture condition”).
We systematically screened the optimal UB culture condition in four different stages (Stages I-IV).
In Stage III, based on the optimized recipe consisting of FGF9, TTNPB, CHIR99021 (3 μM) and GDNF, we preformed our 1st round of screening of growth factors and small molecules targeting major developmental pathways (e.g. TGF-β, BMP, Wnt, FGF, Hedgehog and Notch) and others. The branching morphogenesis, growth rate and Wnt11-RFP were recorded as readouts (Table 1). […] Representative images were taken at least for LDN193189, A83-01, and R-Spondin 1. These individual hits were then subjected to a 2nd round of screening to test their effects in various combinations, eventually leading to the identification of the optimal UB progenitor culture medium UBCM consisting of FGF9, TTNPB, CHIR99021 (3 μM), GDNF, LDN193189, A83-01, R-Spondin1, JAKI and SB202190.

Wnt11-RFP UB organoid [2] = assay: Withdrawal of individual components from UBCM (Stage IV validation); settings: component withdrawn from UBCM
From the text: To determine whether UBCM culture conditions enabled clonal growth from a single UPC, dissociated E11.5 UBs were embedded at clonal density in Matrigel and cultured in UBCM medium. Around 30% of the single cells self-organized into E11.5 UB-like budding structures within 5 days, though a smaller percentage (3-5%) maintained Wnt11-RFP (FIG. 1G), an efficiency similar to clonal organoid formation for Lgr5^+ intestinal stem cells. Importantly, the clonally-derived Wnt11-RFP^+ budding structures were identical to intact E11.5 UB-derived organoids in both branching morphology and growth rate (Table 3, FIG. 1H).
Lastly, in Stage IV, we asked whether each of the components in UBCM was essential.

UB organoids = assay: 2nd round of CD differentiation condition screening (qRT-PCR of Aqp2 and Foxi1); settings: qRT-PCR, 7 days, under hBI+FGF9+Y27632 condition
Method: The functions of the mature renal CD system are carried out by two major cell populations that are intermingled throughout the entire CD network. The more abundant principal cells (PCs) concentrate the urine and regulate Na^+/K^+ homeostasis via water and Na^+/K^+ transporters. The less abundant α- and β-intercalated cells (ICs) regulate normal acid-base homeostasis via secretion of H^+ or HCO3^− into the urine. The absence of an in vitro system recapitulating PC and IC development in an appropriate 3D context, constrains physiological exploration, disease modeling and drug screening on the renal CD system. With this limitation in mind, we developed a screen to establish conditions supporting the differentiation of CD organoids, assaying expression of Aqp2 and Foxi1, definitive markers for PC and IC lineages, respectively, by quantitative reverse transcription PCR (qRT-PCR), following 7 days of culture under variable but defined culture conditions (FIG. 2A).
Agonists or antagonists targeting major developmental pathways (e.g. TGF-β, BMP, Wnt, FGF, Hedgehog and Notch) were tested, together with hormonal inputs known to regulate PC or IC activity (aldosterone and vasopressin).

Row | Molecule | Wnt11-RFP (Wnt11-RFP UB organoid [1]) | other results
1 | B1 | Worse | –
2 | B2 | Better | –
3 | B3 | – | Effect of withdrawal of the component from UBCM on organoid growth (Wnt11-RFP UB organoid [2]): growth arrest
4 | B4 | Worse | –
5 | B5 | Worse | Organoid growth (Wnt11-RFP UB organoid [1]): Slower
6 | B6 | Better | Aqp2 expression (UB organoids): dramatically increased; Foxi1 expression (UB organoids): dramatically increased
